The target in the series is Yeast wild-type L3 incorporated into ribosomes of wild-type cells.

B1: Pokeweed antiviral protein (PAP) (protein)
chain: VNTIIYNVGSTTISKYATFLNDLRNEAKDPSLKCYGIPMLPNTNTNPKYVLVELQGSNKKTITLMLRRNNLYVMGYSDPFETNKCRYHIFNDISGTERQDVETTLCPNANSRVSKNINFDSRYPTLESKAGVKSRSQVQLGIQILDSNIGKISGVMSFTEKTEAEFLLVAIQMVSEAARFKYIENQVKTNFNRAFNPNPKVLNLQETWGKISTAIHDAKNGVLPKPLELVDASGAKWIVLRVDEIKPDVALLNYVGGSCQTTY
With B1, the “association with isolated ribosomes (immunoblot with antibody against PAP)” value was “Both PAP and PAPx were associated with ribosomes in wild-type cells”.

The values above are taken from patent US20050114927.
